Measured values from patent publication CN114539420A (SUZHOU INSTITUTE OF RESEARCH OF PSEUDO UNIV, dated 2022).

Target: T1, 重组人B7-H3蛋白 (recombinant human B7-H3-ECD protein, 11188-H08H, SinoBiological) (human, UniProt Q5ZPR3 29-466)
T1 construct: extracellular domain; Bought protein; The EC50 sentence says only 'human B7-H3 protein'; also called 人B7-H3重组蛋白; 重组人B7-H3-ECD蛋白
T1 sequence (looked up): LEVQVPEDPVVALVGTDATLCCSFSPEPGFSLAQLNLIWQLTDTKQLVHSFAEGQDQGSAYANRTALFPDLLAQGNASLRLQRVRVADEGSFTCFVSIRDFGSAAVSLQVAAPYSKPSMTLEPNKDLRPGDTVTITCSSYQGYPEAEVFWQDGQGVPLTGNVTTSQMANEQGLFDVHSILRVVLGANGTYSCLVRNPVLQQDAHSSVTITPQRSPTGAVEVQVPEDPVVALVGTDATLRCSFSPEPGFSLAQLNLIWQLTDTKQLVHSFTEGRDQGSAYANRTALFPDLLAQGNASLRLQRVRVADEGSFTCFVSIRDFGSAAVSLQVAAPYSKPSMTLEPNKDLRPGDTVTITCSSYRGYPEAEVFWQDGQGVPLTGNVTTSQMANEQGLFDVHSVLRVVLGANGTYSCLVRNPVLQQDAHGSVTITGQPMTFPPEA
Assay: ELISA on recombinant human B7-H3 protein (Fig. 2a, n=3)

EC50: 2.22 ng/mL
B1: 嵌合单克隆抗体10-2#c (chimeric anti-B7-H3 monoclonal antibody) (antibody, human IgG1, V domains shown)
VH: EVQLQQSGPALVKPGTSVKISCKTSGYTFTEYIIHWVKQSHGKSLEWIGGINPNNGGTSYNQKFKGKATLTVDKSSSTAYMELRSLTSEDSAVYYCASRLAPSTAGFAYWGQGTMLTVSS
VL: DIVLTQTPAIMSASPGEKVTMTCRASSSVSYMHWYQQRSGTSPKTWIYDTSKLASGVPGRFSGSGSGTSYSLTISIMEAEDAATYYCQQWSSNPPTFGGGTKLEIK
notes: also called 抗B7-H3单克隆抗体; 嵌合抗体10-2#c
